This is an account of results in patent publication US20260234209A1.

Sequences and labels used below:
B1: C4-71N_mb7 (designed binder)
chain: MGDRRKEMDKVYRTAYKRITSTPDKEKRKEVVKEATEQLRRIAKDEEEKKKAAYMISFLKTLGSPEEILERARESLERAREASERGDEEEFRKAAEKALELAKRLVEQAKKEGDPWMVMWAALVALWVALLALRNGDKEVFKKAAESALEVAKRLVEVASKEGDPEMVLLAAWVALFVAWLAWLFGDKEVFKKAAESALEVAKRLVEVASKEGDPELVEEAAKVAEEVEKLAEKQGDEEVREKAWETWMEVWLLWLEVRLRKGGGGSLEHHHHHH
B2: C6-79C_mb7 (designed binder)
chain: MGSSDEEEARELEERAREAAKRAIEAAKRTGDPRVRELAEELVKLAIWAAVEVWLDPSSSDVNEALKLIVEAIEAAVRALEAAERTGDPEVRELARELVRLAVEAAEEVQRNPSSSDVNEALKLIVIAIEAAVRALEAAERTGDPEVRELARELVRLAVEAAEEVQRNPSSEEVNEALRKIIKLILFAVMVLELAEEIGDPTWREMARRAVREAVELAEEVQRDPSGWLGHGSDRRKEMDKVYRTAYKRITSTPDKEKRKEVVKEATEQLRRIAKDEEEKKKAAYMISFLKTLGSLEHHHHHH
B3: C8-71C_mb7 (designed binder)
chain: MEKKIGPEEILERAKESLERAREASERGDEEEFRKAAEKALELAKRLVEQAKKEGDPELVLEAARVALWVAELAAKNGDKEVFKKAAESALEVAKRLVEVASKEGDPDLVAWAALVALWVAFLAFLNGDKEVFKKAAESALEVAKALMEVAMKVGAPWLVELAIAVARAVWLLAELFGDEEVRRRAEAFEIILRIAAIAVKAWLGGGGSDRRKEMDKVYRTAYKRITSTPDKEKRKEVVKEATEQLRRIAKDEEEKKKAAYMISFLKTLGSLEHHHHHH
B4: C2-58-2X_mb7 (designed binder)
chain: MHHHHHHAENLYFQSGSDEELLRELLKLLLKLLEQMGDEEARRVVEELREELEKKGDPRALVLAFALVILVFLLRILRELGDEELVRRVEELWEELLKEGDPQAMMEVFKLVQELQERRGSGSDRRKEMDKVYRTAYKRITSTPDKEKRKEVVKEATEQLRRIAKDEEEKKKAAYMISFLKTLGS
B5: C4-71C_mb7 (designed binder)
chain: MGPEEILERARESLERAREASERGDEEEFRKAAEKALELAKRLVEQAKKEGDPWMVMWAALVALWVALLALRNGDKEVFKKAAESALEVAKRLVEVASKEGDPEMVLLAAWVALFVAWLAWLFGDKEVFKKAAESALEVAKRLVEVASKEGDPELVEEAAKVAEEVEKLAEKQGDEEVREKAWETWMEVWLLWLEVRLRKGGGGSDRRKEMDKVYRTAYKRITSTPDKEKRKEVVKEATEQLRRIAKDEEEKKKAAYMISFLKTLGSLEHHHHHH

Chain of human FGFR1c (human), P11362 (P11362 22-822): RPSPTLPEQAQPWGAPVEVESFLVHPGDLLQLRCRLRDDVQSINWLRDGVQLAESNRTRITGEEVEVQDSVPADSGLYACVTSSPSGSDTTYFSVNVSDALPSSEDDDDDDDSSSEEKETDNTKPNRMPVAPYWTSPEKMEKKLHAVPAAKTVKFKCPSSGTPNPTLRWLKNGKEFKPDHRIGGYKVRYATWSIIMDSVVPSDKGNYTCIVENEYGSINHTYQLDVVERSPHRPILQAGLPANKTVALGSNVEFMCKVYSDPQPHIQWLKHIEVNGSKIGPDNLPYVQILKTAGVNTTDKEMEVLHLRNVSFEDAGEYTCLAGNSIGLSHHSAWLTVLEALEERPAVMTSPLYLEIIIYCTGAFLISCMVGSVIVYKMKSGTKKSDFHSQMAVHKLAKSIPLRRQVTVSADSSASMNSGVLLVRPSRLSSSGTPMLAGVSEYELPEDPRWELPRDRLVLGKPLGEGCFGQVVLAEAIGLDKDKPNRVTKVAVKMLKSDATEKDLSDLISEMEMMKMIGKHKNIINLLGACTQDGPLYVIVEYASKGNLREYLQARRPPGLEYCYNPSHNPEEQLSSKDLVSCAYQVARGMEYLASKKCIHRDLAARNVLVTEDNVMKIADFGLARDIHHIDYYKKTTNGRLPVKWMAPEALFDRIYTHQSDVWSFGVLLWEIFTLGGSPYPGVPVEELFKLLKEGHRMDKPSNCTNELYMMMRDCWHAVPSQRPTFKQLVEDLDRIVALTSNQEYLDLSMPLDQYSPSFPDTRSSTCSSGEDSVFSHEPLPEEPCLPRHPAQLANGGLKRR

This assay addresses human FGFR1c (human), P11362. The experiment in a line: cell-based or functional assay.
As to B1, the EC50 of ERK1/2 phosphorylation (phosphoflow) in CHO-R1c cells was determined as 0.89 nM and the EC50 of ERK phosphorylation (phosphoflow), C4-71N mb7 extension series amounted to 1.3 nM.

On to B2, for which the EC50 of ERK1/2 phosphorylation (phosphoflow) in CHO-R1c cells worked out at 1.56 nM and the EC50 of intracellular calcium release in CHO-R1c cells is 0.38 nM.

As to B3, the EC50 of ERK1/2 phosphorylation (phosphoflow) in CHO-R1c cells was 2.07 nM and the EC50 of intracellular calcium release in CHO-R1c cells was 3.09 nM.

Take B4: the EC50 of ERK1/2 phosphorylation (phosphoflow) in CHO-R1c cells turned out to be 0.63 nM and the EC50 of intracellular calcium release in CHO-R1c cells is 26 nM.

Take B5: the EC50 of ERK1/2 phosphorylation (phosphoflow) in CHO-R1c cells was 1.33 nM and the EC50 of intracellular calcium release in CHO-R1c cells was 0.72 nM.
